These results are taken from article PMC6454211 (Biochemistry, 2018).

The experiment concerns the target Calmodulin (human full-length CaM, Ca2+-loaded) (human, UniProt P0DP23 1-149). The experiment in a line: cross-linking.

B1: p85α cSH2 domain V663K/V667N/L687F/L691V/L696N (residues 614-724) (domain or fragment)
chain: EDLPHHDEKTWNVGSSNRNKAENLLRGKRDGTFLVRESSKQGCYACSVVKDGENKHCVINKTATGYGFAEPYNFYSSVKELVNHYQHTSLVQHNDSLNVTLAYPVYAQQRR
Turning to B1, the binding result is on record as “binds”.
